Laboratory results published in the DeepSol protein solubility set.

Assay: soluble on expression in E. coli; label from the status in PepcDB or PDB records

| Sequence | soluble on expression in E. coli |
| --- | --- |
| MGSDKIHHHHHHMNNESLTLDAYPVEVEFPDIRPYAEGNCGIPYVFTFDSGVAGPHVMVNALTHGNEVCGAITVKGLLDAGVKPRRGRVTFAFANVDAYACFDPARPDASRFVDQDFNRVWTSAVLDDASRDSSELRRARAMRPVIDTVDLLLDLHSMHEKSRPLIVSGPLDKGIALARALGAPADVIVDEGHPEGRRMRDYADFGDPASARNALLIECGQHWETSAVTVARDSAARFLLNAGVIDAQDVPTGWLQPLAATQRVVRVTEPVVANSMDFRFAGPYTGLETFMEAGTVIGWRDGEPVVTPYPNCVLVMPSLRQLRPGVTVVRLGQLEA | not soluble |
| MSLDLKFTDFLDPRVKSSLGEEEIVFPPYDANQLRDILQHRSDVAFKADALSDDVLPLCAAFAAQEHGDARRALDLLRTAGELAERDQAENVTEDHVRRAQDKIELDRVVEVVRTLPTQSKLVLYAILLLEDNGVHNVNTGEVYNIYKTLCDELDADVEGHHHHHH | soluble |
| TEEPDFTALCQKLKIPDHVRERAWLTWEKVSSVDGVLGGYIQKKKELWGICIFIAAVDLDEMSFTFTELQKNIEISVHKFFNLLKEIDTSTKVDNAMSRLLKKYDVLFALFSKLERTCELIYLTQPSSSISTEINSALVLKVSWITFLLAKGEVLQMEDDLVISFQLMLCVLDYFIKLSPPMLLKEPYKTAVIPINGSPRTPRRGQNRSARIAKQLENDTRIIEVLCKEHECNIDEVKNVYFKNFIPFMNSLGLVTSNGLPEVENLSKRYEEIYLKNKDLDARLFLDHDKTLQTDSIDSFETQR | soluble |
| MSSRIEQIIDEIDEFIESCKFQPLSATKIIVNKEEIEELLRELRLKTPDEIKRYQKIISNKDAILEDAQSKADAIIADAQAKAQELVTQHEIMQKAYAQANDTINAANKQAQEILDSATQDANSIRLSAITYTDDMMANIGSVLNQTLEDAGGKYKGFIDALQSCLDVVNHNRQELAPQTAQAAAMTGSYHEEPADAPEEDSLLDDLGEE | not soluble |
| GPGSMKPATIPHGKNDAEGAGARMYEGMNTLQKEELNDYLISQMGPGTKWHDEMSDVVNTIIRQRSINGEPLDVHDVLSEALPHCQLAISHEVRDGLFRRIAGMCTTTDV | soluble |
| GSHMASMTGGQQMGRGSDSSNAITIENNTLWTGAKPSANCVIKEGEDSPDCKLTLVLVKNGGLINGYITLMGASEYTNTLFKNNQVTIDVNLAFDNTGQIITYLSSLKSNLNFKDNQNMATGTITSAKGFMPSTTAYPFITYATETLNEDYIYGECYYKSTNGTLFPLKVTVTLNRRMLASGMAYAMNFSWSLNAEEAPETTEVTLITSPFFFSYIREDD | soluble |
| MKMYEVKEFSSGKRKLEDYKSIIGEEEVSKIQEKAEKLKGRSFVHVNSTSFGGGVAEILHSLVPLLRSIGIEARWFVIEGPTEFFNVTKTFHNALQGNESLKLTEEMKELYLNVNRENSKFIDLSSFDYVLVHDPQPAALIEFYEKKSPWLWRCHIDLSSPNREFWEFLRRFVEKYDRYIFHLPEYVQPELDRNKAVIMPPSIDPLSEKNVELKQTEILRILERFDVDPEKPIITQVSRFDPWKGIFDVIEIYRKVKEKIPGVQLLLVGVMAHDDPEGWIYFEKTLRKIGEDYDVKVLTNLIGVHAREVNAFQRASDVILQMSIREGFGLTVTEAMWKGKPVIGRAVGGIKFQIVDGETGFLVRDANEAVEKVLYLLKHPEVSKEMGAKAKERVRKNFIITKHMERYLDILNSLGGLEHHHHHH | soluble |
| MPIRHCIVHLIEKKPDGTPAVLHARDSELAESQAIENMLADLNESYNAKQGKAWGLFHPESGAHPFSGWLKEYLDGGKDFTAFSRVSVEHLQKLMEESNLSVGGHVLFAHYQQGMTDYLAIALLHHSDGVAVNAELDVTPSRHLDLGQLHLAARINISEWQNNKQSKQYISFIKGKNGKKVSEYFRDFIGCQEGVDGPGETRTLLKAFSDFVESEDLPEESAREKTKTLIDYASSQSKMGEPMGLEALSELIDENQPRAFYDHIRNKDYGLSPEIPADKRTLNQFRRFTGRAEGLSISFEAHLLGDKIEYDETAGTLIIKGLPTQLTDQLKRRLEHHHHHH | not soluble |
| AMGSATISRRGILVIRHGERVDQVFGKSWLQQCTTADGKYYRPDLNFPRSLPRRSNGIKDFENDPPLSSCGIFQARLAGEALLDSGVRVTAVFASPALRCVQTAKHILEELKLEKKLKIRVEPGIFEWMKWEASKATLTFLTLEELKEANFNVDLDYRPALPRCSLMPAESYDQYVERCAVSMGQIINTCPQDMGITLIVSHSSALDSCTRPLLGLPPRECGDFAQLVRKIPSLGMCFCEENREDGKWDLVNPPVKTLTHGANSVFNWRNWIS | soluble |
| MAPQPFDIDTPSLRVFLPAPELATGRAIVACPGGGYGGLAVNHEGYDWAPYFNKQGIALIVLKYRMPHGDRTLPISDAEAAMKMARDSADVWNLNPYDIGIMGSSAGGHLASTIATHTRPELRPNFQILFYPVITMDKSYTHIGSHDNLLGKDAFAELETEFSNEKQVTKETPRAFIAYSDDDKTVPPANGVNYYLGLHKNHVPAVLHIYASGGHGWGIRENFIYLEHHHHHH | not soluble |
| MASYAELFDIGEDFAAFVGHGLATEQGAVARFRQKLESNGLPSALTERLQRIERRYRLLVAGEMWCPDCQINLAALDFAQRLQPNIELAIISKGRAEDDLRQRLALERIAIPLVLVLDEEFNLLGRFVERPQAVLDGGPQALAAYKAGDYLEHAIGDVLAIIEGAAR | soluble |
| MGIDPGTGSMDVLGFDDESNNVFLEESIPRDEVTRDPSLPLRIVEEASAKVGGLDAVVAPSGYGMPLKRASETAPGDICEATFIHSSDEVLGLRIVGLRRLMALFASSDLPAWFTPGVIHLPTVPAWRKVGRIDMGTADKLYTVAAALRTEVEYHGVEPEAARFIAVEAGMAYTAAVAVVGGKVVDGVGGTSGFHGFMGGGAMDGEAAYALAAVAPRFSKSLLFKGGAGWVAGVSSPVELEEKASEGGGLEALEMLGEGVVKSVATLLPSLRPEGGEVRVYVSGRLFSLGRLGSELRSRLRDFISSIGLTPRVLTIERLGSKTKEGASGAALVASGLAGGRYKWLVDHLELERSSGSIFDHLPVDEDLRRAVRLEFRSCSPLGEA | not soluble |
| GPGSMVRRNNKSTESTIVFTRGAGDNSLWDDADLIRLWNAQLEEDQCEKAEDEAPVPSTVSEDGSLITTEDDEVAESEQKSSLRSFQSGQREAGVASAIVTAAPINASVAPVVLHQSMFDRLPADIRQLLVAYFNAGYEAGYFVGKRDGSSKVGGKRARGE | not soluble |
| MGSSSSFSSSSSKLLFRQLFENESSTFTYLLADVSHPDKPALLIDPVDKTVDRDLKLIDELGLKLIYAMNTHVHADHVTGTGLLKTKLPGVKSVISKASGSKADLFLEPGDKVSIGDIYLEVRATPGHTAGCVTYVTGEGADQPQPRMAFTGDAVLIRGCGRTDFQEGSSDQLYESVHSQIFTLPKDTLIYPAHDYKGFEVSTVGEEMQHNPRLTKDKETFKTIMSNLNLSYPKMIDVAVPANMVCGLQDVPSQAN | soluble |
| MGSDKIHHHHHHMTSARRQLIDANATPFYHVINRCVRRAFLCGEDKLTGRSYEHRRGWIVDKIKVLSSIFCIDICAYAVMNNHYHLVLKINVEKAKSLSQREIISRWCQITKGHAVATKYMNGDVLIDGEIMLLDALLAEWHERLSSVSWFMRCLNEEIARKANREDECKGAFWEGRFKSQALLDEQALLACMMYVDLNPIRAGVADSLQSSDFTSIQERISLLNLQRDAFTSLKTQVKSVNKLPQIIHQSLAKFDGPTHQSQQTGIPFHFADYLELIDWTGRAIRLDKKGYIDNQRPKLLHELGIASDAWLTSAKEFRRQYSGISGRWDSMCEFKKQHNSGKWCKGKASSQALHP | not soluble |
| MLTRLNRSFVQAARSMYIQVQETPNPLSLKFLPGQQLLPDASKTYDFSSAATAKQSPLAIKLLRVDGVKRVFFGEDFVTVTKSDETVDWALLRPEIFSTIADHIQTGKPVINEAATVSDQVEEDDEVVMMIKEILETRIRPMVQEDGGDITYVGFDDGVVKLKMQGSCTGCPSSGVTLKNGIENMLTFYVPEVKEVIEVKDESDDLVEQELKKFEQSKGIKD | not soluble |
| MGSDKIHHHHHHMLVVTTACNLDCAYCYEGGGNGQGEMMDLDTALRALDLVAASNQPFHVQLTGGEPLLAGELVFRILEYIRNNNLPATTAIQTNGVLLDHQTARRLHSFGTAVGVSVDGLPAIQEQLRGQGAATWKALAMLDSERVPFSVTTVLSSRNTRDLSTLGMALHSMPAASAIGLDLLVQKGSAAAKIGVQPPDAVTIRSGVTRLLATLDVLNAQRSRPLILRERQTVLKALGRDEARPYCQACTGSSLAVTPRGELYPCTQTLGDARFHLGTLDHPRLSGTALPDGRLPKREECAGCGLQGRCPGDCPSRLHYNGADGAGLVCALYRTICDYCLYKGEIPS | not soluble |
| GSHVSKREDGRLDHELRPVIITRGFTENPAGSVLIEFGHTKVLCTASVTEGVPRWRKATGLGWLTAEYAMLPSATHSRSDRESVRGRLSGRTQEISRLIGRSLRACIDLAALGENTIAIDCDVLQADGGTRTAAITGAYVALADAVTYLSAAGKLSDPRPLSCAIAAVSVGVVDGRIRVDLPYEEDSRAEVDMNVVATDTGTLVEIQGTGEGATFARSTLDKLLDMALGACDTLFAAQRDALALPYPGVLPQGPPPPKAFGT | soluble |
| MKVLVTGATSGLGRNAAQWLLEAGHEVYAIGRDQLAGEELRKLGATFIPLDLTMTTMEVCQQWLKTCDVVWHCAAKSAPWGNPQDFHQTNVVVTHKLAQAAGREGVKRFIHISSPAVYFDFRHHHDLPETYRASRFSSHYASSKYAAEQVLHECIAHYPDTTYVILRPRGLFGPHDRVIVPRLLQQLSRDRNVLRLPGGGQAQLDLTFVLNVVHAMMLATDNDGLRSGAIYNITNQEPQRLVTMLDSLLNQQLHINYTLQPVPYSLLSVVAAGMELVASMTQKEPLLTRYSVGAVYFDMTLNSERAINELGYRPRYSMAEGIVLAGEWLSAQRSGQHG | not soluble |
| MVAKISVGSSLFGALSYNQNKVDEEQGKVLLSNRMFESEDGNFSIRRCMECFDMHLPADLKTEKPIIHISLNPHPDDVLSDSQLADIAKEYMDKLGYGNQPYMVYKHEDIARHHIHIVSIRVDDTGKKINDKFEHIRSKQITRELEQKYGLHPAEKKQAADRPELKKVDYRAGDVKHQLSNTVKALASSYRFQSFTEYKALLSIYNVQAEEVKGEVNGKPYNGIVYSATNDKGEKQGNPFKSSSLGKSVGYEAIQRHIKKSTKDIQDKNLKERTRRTVGAVMKSAHSRKELEQELKRKGIDVLFRQNDTGRIYGVTFIDHENRTVLNGSRLGKDFSANVFNDLFSGSRTLSGNSKQETQEQKPEYNPTGHLENTGKAIAGLFSLLSGGNDTPPDNSQVPPPKKKKKKKQRRILEHHHHHH | soluble |
| VSFNANEVTHVDTPQEALAASLNKFGEVNLEYMENLSETGRQELLTQLENRIFYNPMMKNYEIKDRFIAGNVVAKVEWIENYLKDYPDDDASKKSLEALQKAIPEPISFELLDFNLGERWIPVSVYEEFAGYLFEAKAHIHYTESIDEFSVSFEETNANITDRYYVKGEKRGYYGNDLLKHALHNTVPDITKTVQDEEGNDIKVRDAEAIQLADAKINEIRSAFTGWLNEQLPEFKQHLADMYNRKFNCYVRPDYDGSLQSF | soluble |
| GPGSMRPSRKRQARRQHPWQQRSVAHKAQRAPSSGHGASGVEHLPRDAVVHVAPRQQHRPVGQAHRRIKRHRVVLRQQKVVPHKRHSRARHAHSPTHRHRVLAQQEVAVNKRHHGAATGRNTALHRHAQPQRRLHRQPVHVERTARRQRHAAN | soluble |
